Assay results reported in US20150328292A1, “CASPASE POLYPEPTIDES HAVING MODIFIED ACTIVITY AND USES THEREOF” (BELLICUM PHARMACEUTICALS, INC., priority 2014, published 2015).
Where a chain is given by its changes, count along the chain named. Names may count otherwise.

B1: D327G: chimeric modified caspase-9 polypeptide variant (protein)
chain: VDGFGDVGALESLRGNADLAYILSMEPCGHCLIINNVNFCRESGLRTRTGSNIDCEKLRRRFSSLHFMVEVKGDLTAKKMVLALLELARQDHGALDCCVVVILSHGCQASHLQFPGAVYGTDGCPVSVEKIVNIFNGTSCPSLGGKPKLFFIQACGGEQKDHGFEVASTSPEDESPGSNPEPDATPFQEGLRTFGQLDAISSLPTPSDIFVSYSTFPGFVSWRDPKSGSWYVETLDDIFEQWAHSEDLQSLLLRVANAVSVKGIYKQMPGCFNFLRKKLFFKTSASRA
B2: D327R: chimeric modified caspase-9 polypeptide variant (protein)
chain: B1 chain with G195R
B3: L329K: chimeric modified caspase-9 polypeptide variant (protein)
chain: B1 chain with G195D, L197K
B4: L329G: chimeric modified caspase-9 polypeptide variant (protein)
chain: B1 chain with G195D, L197G
B5: Q328R: chimeric modified caspase-9 polypeptide variant (protein)
chain: B1 chain with G195D, Q196R
B6: F326K: chimeric modified caspase-9 polypeptide variant (protein)
chain: B1 chain with F194K, G195D
B7: D327K: chimeric modified caspase-9 polypeptide variant (protein)
chain: B1 chain with G195K
B8: Q328K: chimeric modified caspase-9 polypeptide variant (protein)
chain: B1 chain with G195D, Q196K
B9: A331K: chimeric modified caspase-9 polypeptide variant (protein)
chain: B1 chain with G195D, A199K
B10: N405A: chimeric modified caspase-9 polypeptide variant (protein, UniProt P55211 1-416, looked up, variant N405A)
chain: MDEADRRLLRRCRLRLVEELQVDQLWDALLSRELFRPHMIEDIQRAGSGSRRDQARQLIIDLETRGSQALPLFISCLEDTGQDMLASFLRTNRQAAKLSKPTLENLTPVVLRPEIRKPEVLRPETPRPVDIGSGGFGDVGALESLRGNADLAYILSMEPCGHCLIINNVNFCRESGLRTRTGSNIDCEKLRRRFSSLHFMVEVKGDLTAKKMVLALLELAQQDHGALDCCVVVILSHGCQASHLQFPGAVYGTDGCPVSVEKIVNIFNGTSCPSLGGKPKLFFIQACGGEQKDHGFEVASTSPEDESPGSNPEPDATPFQEGLRTFDQLDAISSLPTPSDIFVSYSTFPGFVSWRDPKSGSWYVETLDDIFEQWAHSEDLQSLLLRVANAVSVKGIYKQMPGCFAFLRKKLFFKTS
modifications: chimeric, fused to FKBP12v36
notes: chimeric modified caspase-9 polypeptide variant
B11: G402I: chimeric modified caspase-9 polypeptide variant (protein, UniProt P55211 1-416, looked up, variant G402I)
chain: B10 chain with G402I, A405N
modifications: chimeric, fused to FKBP12v36
notes: as for B10
B12: D315A-D330A: chimeric modified caspase-9 polypeptide double mutant (protein, UniProt P55211 1-416, looked up, variant D315A D330A)
chain: B10 chain with D315A, D330A, A405N
modifications: chimeric, fused to FKBP12v36
notes: chimeric modified caspase-9 polypeptide double mutant
B13: D315A: chimeric modified caspase-9 polypeptide variant (protein, UniProt P55211 1-416, looked up, variant D315A)
chain: B10 chain with D315A, A405N
modifications: chimeric, fused to FKBP12v36
notes: as for B10
B14: N405F: chimeric modified caspase-9 polypeptide variant (protein, UniProt P55211 1-416, looked up, variant N405F)
chain: B10 chain with A405F
modifications: chimeric, fused to FKBP12v36
notes: as for B10
B15: G402Q: chimeric modified caspase-9 polypeptide variant (protein, UniProt P55211 1-416, looked up, variant G402Q)
chain: B10 chain with G402Q, A405N
modifications: chimeric, fused to FKBP12v36
notes: as for B10
B16: N405T: chimeric modified caspase-9 polypeptide variant (protein, UniProt P55211 1-416, looked up, variant N405T)
chain: B10 chain with A405T
modifications: chimeric, fused to FKBP12v36
notes: as for B10
B17: G402Y: chimeric modified caspase-9 polypeptide variant (protein, UniProt P55211 1-416, looked up, variant G402Y)
chain: B10 chain with G402Y, A405N
modifications: chimeric with dimerization domain
notes: as for B10
B18: ^402GCFNF^406ISAQT: caspase-9 with 402-406 residues replaced by those of Caspase-10 (protein, UniProt P55211 1-416, looked up, variant G402I C403S F404A N405Q F406T)
chain: B10 chain with G402I, C403S, F404A, A405Q, F406T
modifications: residues from caspase-10
B19: C403P: chimeric modified caspase-9 polypeptide variant (protein, UniProt P55211 1-416, looked up, variant C403P)
chain: B10 chain with C403P, A405N
modifications: chimeric, fused to FKBP12v36
notes: as for B10

Test system: HEK293T/16 cells
Assay: SEAP reporter-based surrogate killing assay (basal activity and AP1903 IC50)
Type: cell-based, human
Conditions: AP1903-independent SEAP activity, vs wild type
Description: FIG. 45 provides a schematic of an analysis of SEAP assays. […] of the mixture was seeded onto each well of a 96-well plate. […] For the assay, 4-methylumbelliferyl phosphate substrate was hydrolyzed by SEAP to 4-methylumbelliferon, a metabolite that can be excited with 364 nm and detected with an emission filter of 448 nm. Since SEAP is used as a marker for cell viability, reduced SEAP reading corresponds with increased icaspase-9 activities.
Early passage HEK293T/16 cells (ATCC, Manassas, Va.) were maintained in IMDM, GlutaMAX™ (Life Technologies, Carlsbad, Calif.) supplemented with 10% FBS, 100 U/mL penicillin, and 100 […] until transfection in a humidified, 37° C., 5% CO2/95% air atmosphere. Cells in logarithmic-phase growth were transiently transfected with 800 ng to 2 μg of expression plasmid encoding iCasp9 mutants and 500 ng of an expression plasmid encoding SRα promoter driven SEAP per million cells in 15-mL conical tubes. […] GeneJammer® Transfection Reagent at a ratio of 3 μl per ug of plasmid DNA was used to transiently transfect HEK293T/16 cells in the absence of antibiotics. 100 μl or 2 mL of the transfection mixture was added to each well in 96-well or 6-well plate, respectively.
Briefly, after 65° C. heat denaturation for 45 minutes to reduce background caused by endogenous (and serum-derived) alkaline phosphatases that are sensitive to heat, 5 μl of supernatants was added to 95 μl of PBS and added to 100 μl of substrate buffer, containing 1 μl of 100 mM 4-methylumbelliferyl phosphate (4-MUP; Sigma, St. Louis, Mo.) re-suspended in 2 M diethanolamine. Hydrolysis of 4-MUP by SEAP produces a fluorescent […] with excitation/emission (355/460 nm), which can be easily measured. Assays were performed in black opaque 96-well plates to minimize fluorescence leakage between wells (FIG. 45).

Row | Molecule | basal activity / basal signaling (in words)
1 | B1 | did not lower basal activity
2 | B2 | did not lower basal activity
3 | B3 | did not lower basal activity
4 | B4 | did not lower basal activity
5 | B5 | did not lower basal activity
6 | B6 | did not lower basal activity
7 | B7 | did not lower basal activity
8 | B8 | did not lower basal activity
9 | B9 | did not lower basal activity
10 | B10 | no effect
11 | B11 | catalytically inactive
12 | B12 | inactive
13 | B13 | reduced basal activity
14 | B14 | lowered basal activity
15 | B15 | catalytically inactive
16 | B16 | increased basal activity
17 | B17 | catalytically inactive
18 | B18 | reduced basal activity
19 | B19 | catalytically inactive
